Data reported in a protein production outcome set (Wang et al. 2014).

Assay: label from the status in PepcDB records

Row | Sequence | protein production
1 | MSNAVSAENEGPGAIPGLLHLSGPCVYVAGSQGVSMTQTMPIGAVIAPVTPLQQNCTIVWCAKTLKAAVIDPGGEVDRLLKAIADKGLTLEKIWITHGHMDHAGGAAELKARTGVPIEGPHKDDQFWIDRIQDSGEMYGMPEARIFVTDRWLDDGDTVTLGETEFEVFHCPGHTPGHVVFFHRETKFAQVGDVLFQGSIGRTDFPMGNHQDLIDSITQKLWPLGEDVRFVPGHGPMSTFGAERRGNPFVGDRVVAAMKAQGAGFTIPKNNSPG | failed
2 | MKLDWNGIDTVLLDMDGTLLDRHFDDHFWLEHVPKRYAAQNGIPLDEAKKLLYALFRSQERTLNWTDLDYWSERLGLDIPVLKQEIDHLIAVHPGVVEFLVFLRRHGKQAWLVTNAHGKTLSLKMRKTRLGPYFTGIISAHDLGLPKEDVRFWEKLQERVPYEPSRTLLGEDSETNLGTAEEYGIAHLIYVSRYSSTVTPTASDRYASIHYFTQLIPAAHTDET | failed
3 | MLKNLRIRKFEPEEEYVYFTYSIKNDKREKSKELIREYTTLLQKAIDYLWNLTKIQVRKKNGNYKITLPKKREVYKPLREELEKINHLASHYVDKAINDAFSILKSWRKRAIKGRASIEKPRVKKAYVRIKTTLRKVVGESVRITVRPHEYITFSWSKSWFSRRVRELELGEPIIKEEKVYLPFRYKLPWATPVDFLAIDSNLYTLDAYDGEKFVTISLKQLYSLKYSMEVKRAKVQSFASKHTKRGRELMRKYSHRERNRVLDFVHKFVNTLLDLYPMTFFAVEKLNKESMFKDANDSLSRKISRTVWGSIHRVLKYKAPLYGSFVKEVNPRFTSRSCPRCGFVSRKVGKTFECERCGFKLDRQLNASLNIYLKMCGFPHIREIARVWVGVIPLMGRRGMNGFPRDFGEAQGLRIDIEYHEIPLEHHHHHH | not failed
4 | MDIQNMPREQLGVCAEGNLHSVYLMFNANDNVESQLRPCIANVAQYIYELTDQYSDSAFNGFVAIGANYWDSLYPESRPEMLKPFPAMQEGNREAPAIEYDLFVHLRCDRYDILHLVANEISQMFEDLVELVEEERGFRFMDSRDLTGFVDGTENPKGRHRQEVALVGSEDPEFKGGSYIHVQKYAHNLSKWHRLPLKKQEDIIGRTKQDNIEYESEDKPLTSHIKRVNLKDENGKSIEILRQSMPYGSLKEQGLMFISTCRTPDHFEKMLHSMVFGDGAGNHDHLMHFTSALTGSSFFAPSLDFLMQFDN | not failed
5 | MRGEFYQQLTNDLETARAEGLFKEERIITSAQQADITVADGSHVINFCANNYLGLANHPDLIAAAKAGMDSHGFGMASVRFICGTQDSHKELEQKLAAFLGMEDAILYSSCFDANGGLFETLLGAEDAIISDALNHASIIDGVRLCKAKRYRYANNDMQELEARLKEAREAGARHVLIATDGVFSMDGVIANLKGVCDLADKYDALVMVDDSHAVGFVGENGRGSHEYCDVMGRVDIITGTLGKALGGASGGYTAARKEVVEWLRQRSRPYLFSNSLAPAIVAASIKVLEMVEAGSELRDRLWANARQFREQMSAAGFTLAGADHAIIPVMLGDAVVAQKFARELQKEGIYVTGFFYPVVPKGQARIRTQMSAAHTPEQITRAVEAFTRIGKQLGVIA | not failed
6 | MWYSTVRNPSIALIKQGYHILAEYNLVKEELKNIYAIPSYACGLHWFGVIFVHSGIYAGSVFRFSILLPENFPADISLPTVVFSTEVLHPHICPQNKTLDLAHFLNEWRKDEHHIWHVLRYIQAIFADPEGSICTGQSSSGDLVIMDEVRNMNALNMLAKSRPEYIKRVQEQAILSRNLIYDRPPTEDPHYIIVEPYCAERHLKFMDQLKSPCWKEATSMDCSQPSEYLGHIDSSRQLDEEEANQVEKLHRGRIPEHQREESEVSL | failed
7 | MGHHHHHHSHMKEDQKNKIPEDILKQLLSVDPETVYASGYASWQEGDYSRAVIDFSWLVMAQPWSWRAHIALAGTWMMLKEYTTAINFYGHALMLDASHPEPVYQTGVCLKMMGEPGLAREAFQTAIKMSYADASWSEIRQNAQKMVDTLIA | failed
8 | MNESVDTDEATTPLVSAIIPTYGRNERLSSAIQSVLEQTYDNIELFVVDDASPTPVRETLDSFDPTVENSFRILRHDENQGANAARNTGIRASDGRYVAFLDDDDQWDETKITKQVQAFQESDSETGVVYTGVRKDGPEGTTVSTPVASGDVMKDLLTGTNFGQFSSVMVDTTVIETAGLPDERLPAWQDREWFFRLAQHTHFRPVRETLTYRQTGLPGSITKKYEQKRDVAYPMLISKHDWVAAEYGIYYERMFKATMRRSLARSAVRADRYKEARKYFLLSALANPLYWPVYPHLFASLGGKWSYESIASLRQQVTNGPASGTLEHHHHHH | failed
9 | MEDIIVVENLVKKFGDFEAVKGVSFSVKKGEIFAFLGPNGAGKTTTIHMLTTLLKPTSGKAWVAGHDVLKEPREVRRKIGIVFQDQSLDRELTAYENMYIHGKIYGYGGEKLKKRILELLEFVELLEFKDKPVKTFSGGMARRLEIARSLIHEPEVLFLDEPTIGLDPHTRAHMWEYISKMKKEHNMTIFLTTHYMDEAEQLADRVAIIDHGKIIALGTPTELKRMVGKEIIYVRFSEAVECLEGDFIESCRKLPDGRLELNVEDSGRAIPKIFELAQQKGLKIEEITYHKPTLNDVFLHLTGRELREEGPENSFKTMARMRMRMRR | not failed
10 | MIDELRALAVFAKTTETGSFRAAARALGLAPSVVSHHVSQLESRLGVALLYRSTRRLSLTPDGQALYGHAQAMLQAAETGLNELAGRAAEPAGTLRLSLPAFFARGPLTTSLAAFSRCHPKVELELDYSDEKRDLIRDGIDLAIRIGELQDSALKSRRLFDMPRLLVAAPSLLDARGEPASPAELADWPWLGIRMRAKRKTLIDAAGRRHDFAIQPRITANSVDAACQLAIAGCGLATPPAFLVENELAAGQLRVVLPDCQVEALGVYAVWPANAARESLTLRLVRFLAELPPHQ | failed
11 | MDRAAFPDCCVFLFGFFRRDFGAAGLYGMHDAGLLTGVQLVVAAITLTLFMLCIAQFMMTVKERGFKMALAISGFIFPSALLAGFIVNTLMTALRVKL | failed
12 | MKKSNIKTLEQFKDQNYGKKGTAKRDSLEMGYDTFKIGALIQEARIEKGMTQEELAIKCGTTKSYISRIENNIKEVRISTLQKIVELGFGGQLQLSIKFLEHHHHHH | not failed
13 | MDAPTSQRYTAKARWLHWIMAALIVLAYTLILSRTQFGKGSEYRTLVVQSHFWVGIVVLVLAFFRVAERRRQRPPGITPPLEGVLRAAATLSHYALYAFLFTQPLLGLLTVMVEKGSLPIPLTDLQIPWPLPISDHTAEYFEDLHKLLGKIFYYVIGLHVVAALWHHIVRKDNTLKRML | failed
14 | MSDSLFLSLAKFDVILSGSTNSNILHDVMGQVIDRSEIQDLNANNKPTKKIDFHLRDQHDTRLACILWGKYAEIVDKACQESTDGIVVCLIRFAKINLYNDTRSVSNFFDVSQVFVDPTLAELDLFKQSIP | failed
15 | MNANIMLNEDITPIGSDYDTVRGVIELLTLDYREQPSLEAIAARLGQSPTQLQKTFTRWAGLSPKAFLQAVTLDHAKRLLREEDLPLLETSIEVGMSGPGRLHDLFVTHEAMSPGEWKAKGGGLTIRYGFHASPFGLALVMITDRGLAGCAFADPGDERACFEDMAGRWPNADYVEDREATAPYAARIFEPAMWTADKPLRVVLLGTDFQVRVWKSLLKIPMGRAVTYSNIACDIGQPTASRAVGAAVGANPVSFVVPCHRAVGKSGALTGYHWGLTRKRAMLGWETGKALEHHHHHH | failed
16 | MSDIRMRADIAADGLTDRPPDRLADEPAEELSHGLLEGLSKEPADELADSPFLLDEPPDYFEDFLLFIFTLMKTTSCLGVAKTTHKLFLCVEPTKEKVAFSDKATSFSAPIEILLFNLDPPSIQGYLRRPLSLKDLHISSARIIDAPLLKPNG | failed
17 | MLTQYRQAQEDILRGRVKVRVVGQDKGGGVVMGEGVEIAPGARIEGPVLIGGACHIATGAVVGPFTVLGPYTRVEEGATVRRSVLWDNVYTGEGANVRGLEHHHHHH | not failed
18 | MSCCIANAIRWDVSLLIHRSMSSSMSSVQPTSPVSDSPSLGEMHASVAVSRRGHWGFRLLAFLGPGYMVSVGYMDPGNWATGLAGGSRFGYMLLSVILLSNVMAIVLQALAARLGIASDMDLAQACRARYSRGTNLALWAVCELAIIACDLAEVIGTAIALNLLLGVPIILGAVITAVDVVLVLLLMHRGFRALEAFVIALLLVIFGCFVVQIVLAAPPLQEVLGGFVPRWQVVADPQALYLAIGIVGATVMPHNLYLHSSIVQTRAYPRTPVGRRSALRWAVADSTLALMLALFINASILILAAAVFHAQHHFDVEEIEQAYQLLAPVLGVGVAATLFATALLASGINSTVTATLAGQIVMEGFLRLRLRPWLRRVLTRGLAIVPVIVVVALYGEQGTGRLLLLSQVILSMQLPFAVIPLLRCVADRKVMGALVAPRWLMVVAWLIAGVIVVLNVKLLGDYAVHLMVGVSD | failed
19 | MAVVGFDAAKISILDENEKVTDTFTIDRSSGGTIEANISGLAPNMNVVYASNVPFYVSAKGTSEVKCELTVADLDDLGTEAVNKILGREQDSTTKITKVGVNTTPPYCVLELISKDKQGKGLFLGLLKGKFTFDGEDMKTSDNNGSQLSEDKVTMQCISRKDGYIYAKAKEADGTTQADFEKFIMPAATAPAAG | failed
20 | MIVFKAENLSVGYNGVKAVSNINFSAKQGEIICLLGPNGAGKTTIIRTLSGLLPPIEGEIHINGKSLSTINKKLLAQTLSVVLTEKPSFDVMTAFDVVSLGRFPHTGFFGTITKEHEIKVVEALKTVGALNLIDKYFHILSDGERQKVMLARALVQEPQIIILDEPTTHLDINHKIELLNTLKNLSRTAKLTVILSLHEIDLALKYCDKVMLVENKKVLSFGSPETTVNGETINKLYGIKNASFNPITSSIELKNSEKSNIYVIGGCGFGTPIYRLLSKYNLGFSTGILHENDIDYETAKTMSLRLQSEKPFQKISKISFEKALAAVASSDIIIDSGFPIGETNEKNLNLLNYAVEKNKRVITFRKYFNSTMSYCSNKDALIDFILRLEHHHHHH | failed
21 | MNKSSATIMAAALMLASSCTEVKQEGQGYEPIIGKQEITIKDGRLTPEALWAMGRIGSLSISPDGKQIAYTVAYYSVPENKSHHVIYVMDADGKNNTLLTQTAWNESEPQWIKGGTKIAFLCNESGGSQIWEMNPDGTERRIISDFKGNIEGFSFSPDGKKILFISQIKYGQRTVDLYPDLPKASGIIVNDLMYKHWDEWVESIPHPFIADFDGNMMGAATDIMEGEPFEAPMKPFGGIEQLAWSNDSKQIAYTSRKKQGLAYAVSTDSDIYLYNIEKGTTLNLCKPNGKDSNGTDEMKGYDTNPKFSPNGKYIAWQSMERDGYESDRNRLCIYNLDDGQKTFVTESFESGVDDYCWNNDSQSLYFVGVWHGTSMVYSANLNGDIKKLTDGMYDYGSVAMAGDKIITKRHSISAADEIYTLTPADGQVAQLSHENDHIFKQLNLGKVEERWTKTTDGKQMLSWVIYPVNFDANKKYPTLLFCEGGPQSPVSQFWSYRWNFQIMAANDYIIIAPNRRGLPGFGMEWLEQISGDYGGQCMKDYLSAIDDISKEPYVDTNRLGCVGASFGGFSVYWLAGHHDKRFKAFIAHDGIFNMEQQYLETEEMWFANWDMGGAYWDKNNATAQRTFANSPHRFVDKWDTPILCIHGEKDYRILASQGMSAFNAAVLRGVPAELLLYPDENHWVLKPQNGVLWQRTFFSWLDKWLK | failed
22 | MKFEKRQVYYVVITFAICYAIQAYWGAVSNILTTLHKAIFPFLMGAGIAYIINIVMSVYERLYIKLFKGSRLLMAIKRSVSMILSYATFIGLIVWLFSIVIPDLISSLSSLLVIDTGALAKLVNNLNENKQISEVLNYMGTDKDLVSTLSGYSQQILKQVLSVLTNLLTSVSSIAATLLNVFVSFIFSIYVLANKEQLGRQFNLLIDTYLGSTGKTFHYVRHILHQRFHGFFVSQTLEAMILGSLTVIGMLIFQFPYALTVGVLVAFTALIPVVGAYIGVTIGFILIATESLTEAFLFVLFLILLQQFEGNVIYPKVVGGSIGLPSMWVLMAITIGGALWGILGMLLAVPVAATIYQIVKDHIIKRQTLRNCARTYR | failed
